Measurements from US20180319842A1 (TUFTS MEDICAL CENTER, published 2018).
Groups on a side chain read outwards from the residue. No end group written: not given here. *: point of attachment. PEG8 = NCCOCCOCCOCCOCCOCCOCCOCCOCCC(=O)O; Palmitoyl = CCCCCCCCCCCCCCCC(=O)*

What was measured:
Assay in all cases: cell-based or functional assay
[1] = biological target: T1, Mas-related G protein-coupled receptor X1 (MrgprX1), wild type (human, UniProt Q96LB2 1-322)
[2] = biological target: MrgprX1 H133R variant (human, UniProt Q96LB2 1-322)
[3] = biological target: T1, Mas-related G protein-coupled receptor …; remark: listed apart in the source
[4] = biological target: MrgprX1 A46T variant (human, UniProt Q96LB2 1-322)
[5] = biological target: MrgprX1 H137R variant (human, UniProt Q96LB2 1-322)
[6] = biological target: MrgprX1 F273L variant (human, UniProt Q96LB2 1-322)
[7] = biological target: MrgprX1 I36V variant (human, UniProt Q96LB2 1-322)
[8] = biological target: MrgprX1 R131S variant (human, UniProt Q96LB2 1-322)
[9] = biological target: MrgprX1 R55L variant (human, UniProt Q96LB2 1-322)
Sequence of MrgprX1 R55L variant (Q96LB2 whole entry R55L): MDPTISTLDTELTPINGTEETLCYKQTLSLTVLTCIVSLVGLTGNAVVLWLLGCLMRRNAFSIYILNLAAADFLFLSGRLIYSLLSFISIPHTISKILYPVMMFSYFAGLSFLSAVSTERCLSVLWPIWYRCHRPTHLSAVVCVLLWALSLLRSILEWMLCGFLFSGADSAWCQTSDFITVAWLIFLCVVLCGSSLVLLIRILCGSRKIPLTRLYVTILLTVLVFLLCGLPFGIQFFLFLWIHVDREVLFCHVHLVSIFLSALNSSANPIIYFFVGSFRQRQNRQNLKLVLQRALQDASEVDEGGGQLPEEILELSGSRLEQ

Sequence of MrgprX1 H137R variant (Q96LB2 whole entry H137R): as the sequence (Q96LB2 whole entry R55L) above, with L55R, H137R counted along it
Sequence of MrgprX1 I36V variant (Q96LB2 whole entry I36V): as the sequence (Q96LB2 whole entry R55L) above, with I36V, L55R counted along it
Sequence of MrgprX1 A46T variant (Q96LB2 whole entry A46T): as the sequence (Q96LB2 whole entry R55L) above, with A46T, L55R counted along it
Sequence of MrgprX1 R131S variant (Q96LB2 whole entry R131S): as the sequence (Q96LB2 whole entry R55L) above, with L55R, R131S counted along it
Sequence of MrgprX1 H133R variant (Q96LB2 whole entry H133R): as the sequence (Q96LB2 whole entry R55L) above, with L55R, H133R counted along it
Sequence of MrgprX1 F273L variant (Q96LB2 whole entry F273L): as the sequence (Q96LB2 whole entry R55L) above, with L55R, F273L counted along it
T1 sequence (Q96LB2 whole entry): as the sequence (Q96LB2 whole entry R55L) above, with L55R counted along it

Question: Which “potency relative to soluble BAM8-22, SRE-luciferase reporter, HEK293 cells” value [1] does the source give for VGRPEWWMDYQKRYGGGK([PEG8-Palmitoyl]) [Lipidated BAM8-22] here?
Answer: The value was ~100 fold higher potency than soluble BAM8-22.

Question: What about the “Curve Maximum, SRE-luciferase reporter, HEK293 cells” value (“Curve Maximum” below) [2] of the same binder?
Answer: The value was 110 % of WT signal at 10^-6 M lipidated BAM8-22.

Question: And the “EC50 (nM), SRE-luciferase reporter, HEK293 cells” value (shortened to “EC50 (nM)”) [2]?
Answer: Its value is 8.6 nM.

Question: And the “pEC50, SRE-luciferase reporter, HEK293 cells” value (“pEC50, SRE-luciferase reporter” for short) [2]?
Answer: Its value is 8.06.

Question: What about the “Curve Maximum” value [3] of the same binder?
Answer: Its value is 101 % of WT signal at 10^-6 M lipidated BAM8-22.

Question: And the “EC50 (nM)” value [3]?
Answer: Its value is 12 nM.

Question: What about the “pEC50, SRE-luciferase reporter” value [3] of the same binder?
Answer: The value was 7.92.

Question: And the “Curve Maximum” value [4]?
Answer: The value was 112 % of WT signal at 10^-6 M lipidated BAM8-22.

Question: What about the “EC50 (nM)” value [4] of the same binder?
Answer: The value was 9.5 nM.

Question: What about the “pEC50, SRE-luciferase reporter” value [4] of the same binder?
Answer: The value was 8.02.

Question: And the “Curve Maximum” value [5]?
Answer: Its value is 109 % of WT signal at 10^-6 M lipidated BAM8-22.

Question: And the “EC50 (nM)” value [5]?
Answer: The value was 7.9 nM.

Question: And the “pEC50, SRE-luciferase reporter” value [5]?
Answer: The value was 8.1.

Question: And the “Curve Maximum” value [6]?
Answer: The value was 95.9 % of WT signal at 10^-6 M lipidated BAM8-22.

Question: What about the “EC50 (nM)” value [6] of the same binder?
Answer: Its value is 12.1 nM.

Question: What about the “pEC50, SRE-luciferase reporter” value [6] of the same binder?
Answer: Its value is 7.92.

Question: And the “Curve Maximum” value [7]?
Answer: Its value is 109 % of WT signal at 10^-6 M lipidated BAM8-22.

Question: And the “EC50 (nM)” value [7]?
Answer: The value was 9.3 nM.

Question: What about the “pEC50, SRE-luciferase reporter” value [7] of the same binder?
Answer: The value was 8.03.

Question: What about the “Curve Maximum” value [8] of the same binder?
Answer: Its value is 40.4 % of WT signal at 10^-6 M lipidated BAM8-22.

Question: What about the “EC50 (nM)” value [8] of the same binder?
Answer: Its value is 57.1 nM.

Question: And the “pEC50, SRE-luciferase reporter” value [8]?
Answer: The value was 7.24.

Question: And the “Curve Maximum” value [9]?
Answer: The value was 108 % of WT signal at 10^-6 M lipidated BAM8-22.

Question: And the “EC50 (nM)” value [9]?
Answer: Its value is 10.2 nM.

Question: What about the “pEC50, SRE-luciferase reporter” value [9] of the same binder?
Answer: The value was 7.99.
